Ends that are not written are not given here.
Molecular target: T1, RyRP12 peptide (ryanodine receptor 1) RyRP12 (UniProt P21817, also: TAMRA label, position not given here)
T1 chain: KKAVWHKLLSKQ
Assay: fluorescence anisotropy

B1: S100A1 (protein)
chain: MGSELETAMETLINVFHAHSGKEGDKYKLSKKELKDLLQTELSSFLDVQKDADAVDKIMKELDENGDGEVDFQEFVVLVAALTVACNNFFWENS
Kd: 139 nM
